Reference: PMC8281565

Biological target: histone H3 (UniProt P68431)
Test: co-immunoprecipitation (IP with SV40 antibody, WB, densitometry)
Details: nuclear extracts from transfected HCT116 cells; three different experiments; parent: est. 1.0; read off a plot

SV40 Large T antigen wild type (from UniProt P03070) S106A; S111A; S112G
ratio to parent: 0.61
